Assay results: IntAct's records for PubMed 16407977

B1: Transient receptor potential cation channel subfamily M member 7 (Mus musculus), Q923J1 (parent)
chain: MSQKSWIESTLTKRECVYIIPSSKDPHRCLPGCQICQQLVRCFCGRLVKQHACFTASLAMKYSDVKLGEHFNQAIEEWSVEKHTEQSPTDAYGVINFQGGSHSYRAKYVRLSYDTKPEIILQLLLKEWQMELPKLVISVHGGMQKFELHPRIKQLLGKGLIKAAVTTGAWILTGGVNTGVAKHVGDALKEHASRSSRKICTIGIAPWGVIENRNDLVGRDVVAPYQTLLNPLSKLNVLNNLHSHFILVDDGTVGKYGAEVRLRRELEKTINQQRIHARIGQGVPVVALIFEGGPNVILTVLEYLQESPPVPVVVCEGTGRAADLLAYIHKQTEEGGNLPDAAEPDIISTIKKTFNFGQSEAVHLFQTMMECMKKKELITVFHIGSEDHQDIDVAILTALLKGTNASAFDQLILTLAWDRVDIAKNHVFVYGQQWLVGSLEQAMLDALVMDRVSFVKLLIENGVSMHKFLTIPRLEELYNTKQGPTNPMLFHLIRDVKQGNLPPGYKITLIDIGLVIEYLMGGTYRCTYTRKRFRLIYNSLGGNNRRSGRNTSSSTPQLRKSHETFGNRADKKEKMRHNHFIKTAQPYRPKMDASMEEGKKKRTKDEIVDIDDPETKRFPYPLNELLIWACLMKRQVMARFLWQHGEESMAKALVACKIYRSMAYEAKQSDLVDDTSEELKQYSNDFGQLAVELLEQSFRQDETMAMKLLTYELKNWSNSTCLKLAVSSRLRPFVAHTCTQMLLSDMWMGRLNMRKNSWYKVILSILVPPAILMLEYKTKAEMSHIPQSQDAHQMTMEDSENNFHNITEEIPMEVFKEVKILDSSDGKNEMEIHIKSKKLPITRKFYAFYHAPIVKFWFNTLAYLGFLMLYTFVVLVKMEQLPSVQEWIVIAYIFTYAIEKVREVFMSEAGKISQKIKVWFSDYFNVSDTIAIISFFVGFGLRFGAKWNYINAYDNHVFVAGRLIYCLNIIFWYVRLLDFLAVNQQAGPYVMMIGKMVANMFYIVVIMALVLLSFGVPRKAILYPHEEPSWSLAKDIVFHPYWMIFGEVYAYEIDVCANDSTLPTICGPGTWLTPFLQAVYLFVQYIIMVNLLIAFFNNVYLQVKAISNIVWKYQRYHFIMAYHEKPVLPPPLIILSHIVSLFCCVCKRRKKDKTSDGPKLFLTEEDQKKLHDFEEQCVEMYFDEKDDKFNSGSEERIRVTFERVEQMSIQIKEVGDRVNYIKRSLQSLDSQIGHLQDLSALTVDTLKTLTAQKASEASKVHNEITRELSISKHLAQNLIDDVPVRPLWKKPSAVNTLSSSLPQGDRESNNPFLCNIFMKDEKDPQYNLFGQDLPVIPQRKEFNIPEAGSSCGALFPSAVSPPELRQRRHGVEMLKIFNKNQKLGSSPNSSPHMSSPPTKFSVSTPSQPSCKSHLESTTKDQEPIFYKAAEGDNIEFGAFVGHRDSMDLQRFKETSNKIRELLSNDTPENTLKHVGAAGYSECCKTSTSLHSVQAESCSRRASTEDSPEVDSKAALLPDWLRDRPSNREMPSEGGTLNGLASPFKPVLDTNYYYSAVERNNLMRLSQSIPFVPVPPRGEPVTVYRLEESSPSILNNSMSSWSQLGLCAKIEFLSKEEMGGGLRRAVKVLCTWSEHDILKSGHLYIIKSFLPEVINTWSSIYKEDTVLHLCLREIQQQRAAQKLTFAFNQMKPKSIPYSPRFLEVFLLYCHSAGQWFAVEECMTGEFRKYNNNNGDEIIPTNTLEEIMLAFSHWTYEYTRGELLVLDLQGVGENLTDPSVIKAEEKRSCDMVFGPANLGEDAIKNFRAKHHCNSCCRKLKLPDLKRNDYTPDKIIFPQDESSDLNLQSGNSTKESEATNSVRLML

Variants of: B1
Details: with myh9_mouse Myh9, Q8VDD5
myh9_mouse Myh9, Q8VDD5, sequence (Q8VDD5 whole entry): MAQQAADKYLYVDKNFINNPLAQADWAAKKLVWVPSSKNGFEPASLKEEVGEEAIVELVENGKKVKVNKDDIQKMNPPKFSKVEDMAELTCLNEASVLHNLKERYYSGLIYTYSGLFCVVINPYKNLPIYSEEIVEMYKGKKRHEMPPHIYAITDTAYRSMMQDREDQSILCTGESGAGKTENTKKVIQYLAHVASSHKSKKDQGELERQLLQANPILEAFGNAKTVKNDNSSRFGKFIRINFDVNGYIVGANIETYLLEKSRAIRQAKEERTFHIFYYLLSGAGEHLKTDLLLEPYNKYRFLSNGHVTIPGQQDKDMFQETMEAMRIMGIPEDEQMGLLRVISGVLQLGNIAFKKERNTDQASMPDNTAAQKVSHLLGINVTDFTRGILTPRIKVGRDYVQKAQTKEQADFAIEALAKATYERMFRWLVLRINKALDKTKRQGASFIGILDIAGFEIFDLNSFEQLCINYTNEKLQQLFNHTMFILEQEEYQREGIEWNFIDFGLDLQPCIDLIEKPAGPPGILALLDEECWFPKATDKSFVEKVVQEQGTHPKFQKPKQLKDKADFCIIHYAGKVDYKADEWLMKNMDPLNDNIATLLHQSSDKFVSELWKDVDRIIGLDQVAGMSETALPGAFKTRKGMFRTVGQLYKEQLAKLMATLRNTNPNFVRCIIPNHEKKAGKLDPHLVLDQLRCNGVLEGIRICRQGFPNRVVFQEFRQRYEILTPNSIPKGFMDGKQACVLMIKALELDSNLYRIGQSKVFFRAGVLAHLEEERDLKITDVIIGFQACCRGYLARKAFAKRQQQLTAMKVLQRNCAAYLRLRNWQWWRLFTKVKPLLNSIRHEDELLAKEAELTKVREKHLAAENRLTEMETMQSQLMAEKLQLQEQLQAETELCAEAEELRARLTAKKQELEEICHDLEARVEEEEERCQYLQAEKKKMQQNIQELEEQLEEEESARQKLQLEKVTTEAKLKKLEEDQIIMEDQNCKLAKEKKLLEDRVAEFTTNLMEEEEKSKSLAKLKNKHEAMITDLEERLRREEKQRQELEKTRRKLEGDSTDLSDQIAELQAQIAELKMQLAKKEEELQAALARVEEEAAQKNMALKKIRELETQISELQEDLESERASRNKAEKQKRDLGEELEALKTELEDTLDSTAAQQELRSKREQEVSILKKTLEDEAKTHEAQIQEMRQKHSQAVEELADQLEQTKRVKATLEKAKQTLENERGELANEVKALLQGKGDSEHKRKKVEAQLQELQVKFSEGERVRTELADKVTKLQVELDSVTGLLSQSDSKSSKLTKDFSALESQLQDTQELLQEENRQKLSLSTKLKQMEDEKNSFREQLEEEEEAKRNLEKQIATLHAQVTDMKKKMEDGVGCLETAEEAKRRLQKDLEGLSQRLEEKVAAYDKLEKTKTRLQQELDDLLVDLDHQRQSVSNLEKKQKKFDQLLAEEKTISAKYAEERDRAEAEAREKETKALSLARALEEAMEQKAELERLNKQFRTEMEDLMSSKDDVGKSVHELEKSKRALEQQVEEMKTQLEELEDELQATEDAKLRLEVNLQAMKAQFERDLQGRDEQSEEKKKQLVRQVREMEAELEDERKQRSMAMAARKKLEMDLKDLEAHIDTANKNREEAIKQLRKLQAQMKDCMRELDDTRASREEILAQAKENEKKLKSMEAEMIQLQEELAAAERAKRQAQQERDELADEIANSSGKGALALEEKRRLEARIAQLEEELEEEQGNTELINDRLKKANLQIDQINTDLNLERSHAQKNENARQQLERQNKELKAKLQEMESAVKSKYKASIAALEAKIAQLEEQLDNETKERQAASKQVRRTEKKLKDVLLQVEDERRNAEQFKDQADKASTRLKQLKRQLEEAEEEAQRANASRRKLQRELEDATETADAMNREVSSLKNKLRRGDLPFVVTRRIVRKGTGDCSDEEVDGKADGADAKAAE

| Variant | effect of a mutation on the interaction |
| --- | --- |
| D1775A | decreasing interaction |
